Measurements reported in article PMC8405996, “A structurally preserved allosteric site in the MIF superfamily affects enzymatic activity and CD74 activation in D-dopachrome tautomerase” (The Journal of Biological Chemistry, 2021).

Biological target: the molecule itself
Experiment: crystal structure; hanging-drop vapor diffusion at 20 °C; diffraction data at 100 K; molecular replacement; trimer of MIF-2 in the crystal

| Protein | stoichiometry N | binding result |
| --- | --- | --- |
| D-dopachrome tautomerase (MIF-2), wild type (enzyme, human, UniProt P30046 1-118, looked up, human D-dopachrome tautomerase (MIF-2), monomer of 117 amino acids with the catalytic Pro1 at the N terminus (initiating Met removed); Homotrimer; no tag is named; also called wt-MIF-2; DDT; source: E. coli BL21-Gold (DE3), purified (Q-Sepharose, Superdex 75)) MPFLELDTNLPANRVPAGLEKRLCAAAASILGKPADRVNVTVRPGLAMALSGSTEPCAQLSISSIGVVGTAEDNRSHSAHFFEFLTKELALGQDRILIRFFPLESWQIGKIGTVMTFL | 3 | – |
| MIF-2 P1G variant (enzyme, human, UniProt P30046 1-118, looked up, human D-dopachrome tautomerase (MIF-2) with P1G; the initiating Met was found kept in this variant (not cleaved in E. coli), so the chain begins Met-Gly1; also called P1G MIF-2; source: E. coli BL21-Gold (DE3), purified (Q-Sepharose, Superdex 75)) MGFLELDTNLPANRVPAGLEKRLCAAAASILGKPADRVNVTVRPGLAMALSGSTEPCAQLSISSIGVVGTAEDNRSHSAHFFEFLTKELALGQDRILIRFFPLESWQIGKIGTVMTFL | – | binds |
